Like-named read-outs stand apart in the source and are kept apart here.
Assays:
monkey CD33 protein [1] = target: T1, monkey CD33 protein (monkey); experiment: SPR (Biacore), antibody captured on Protein A chip, monkey CD33 protein as analyte
T1 construct: The printed catalogue numbers for murine and monkey CD33 may be interchanged; also called monkey CD33-His protein
Protocol: (§1) The sample and running buffer was HBS-EP+ (10 mM HEPES, 150 mM NaCl, 3 mM EDTA, 0.05% surfactant P20) (GE Healthcare; BR-1006-69). The flow cell was set at 25° C. The sample block was set at 16° C. Both were pretreated with the running buffer. In each cycle, first, the antibody to be tested was captured using the Protein A chip, and then a single concentration of CD33 antigen protein was injected. The association and dissociation processes of the antibody with the antigen protein were recorded, and finally, the chip was regenerated using Glycine pH 1.5 (GE Healthcare; BR-1003-54). The association was determined by injecting different concentrations of recombinant human CD33-his in the solution and maintaining for 240 s, wherein the flow rate was 30 μL/min, and the protein was diluted in a 1:1 dilution ratio from 200 nM to obtain 5 concentrations in total. The dissociation phase was monitored for up to 600 s and triggered by switching from the sample solution to the running buffer. The surface was regenerated by washing with 10 mM glycine solution (pH 1.5) at a flow rate of 30 μL/min for 30 s. The difference in bulk refractive index was corrected by subtracting the responses obtained from the […]. Blank injections were also subtracted (=double reference). To calculate the apparent KD and other kinetic parameters, the Langmuir 1:1 model was used.
(§2) The assay on affinity of VHH-Fc antibodies for monkey CD33 protein (Sino Biological, Cat. No. 50712-M08H) was performed according to the method in Example 7.1.

monkey CD33 protein [2] = target: T1, monkey CD33 protein; experiment: ELISA, coated monkey CD33, antibody 100 nM
monkey CD33 protein [3] = target: T1, monkey CD33 protein; experiment: SPR (Biacore), antibody captured on Protein A chip, monkey CD33 protein as analyte; remark: listed apart in the source
Protocol: as §1, §2

human CD33-His [4] = target: T2, human CD33-His (human, UniProt P20138 18-259); experiment: SPR (Biacore), antibody captured on Protein A chip, human CD33-his as analyte
T2 construct: range 18-259; Bought protein; also called human CD33-his protein; hCD33-his; not shown: His tag
T2 sequence (P20138 18-259 limits assumed): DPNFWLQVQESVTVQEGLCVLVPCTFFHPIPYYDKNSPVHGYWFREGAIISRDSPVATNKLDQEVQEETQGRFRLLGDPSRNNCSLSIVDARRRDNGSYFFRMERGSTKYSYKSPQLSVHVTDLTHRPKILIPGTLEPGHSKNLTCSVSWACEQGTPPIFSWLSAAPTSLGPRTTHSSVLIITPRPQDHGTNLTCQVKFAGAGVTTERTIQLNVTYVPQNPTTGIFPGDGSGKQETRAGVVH
Protocol: as §1

monkey CD33 protein [5] = target: T1, monkey CD33 protein; experiment: ELISA, coated monkey CD33, antibody 1 nM
[6] = target: T3, monkey CD33 on HEK293T-monkey CD33 cells (monkey); experiment: FACS on HEK293T-monkey CD33 cells
T3 construct: whole, on cells

human CD33-His [7] = target: T2, human CD33-His; experiment: SPR (Biacore), antibody captured on Protein A chip, human CD33-his as analyte; remark: listed apart in the source
Protocol: as §1

monkey CD33 protein [8] = target: T1, monkey CD33 protein; experiment: ELISA, coated monkey CD33, antibody 0.0001 nM
monkey CD33 protein [9] = target: T1, monkey CD33 protein; experiment: ELISA, coated monkey CD33, antibody 0.0001 nM; remark: listed apart in the source
monkey CD33 protein [10] = target: T1, monkey CD33 protein; experiment: ELISA, coated monkey CD33, antibody 0.1 nM
monkey CD33 protein [11] = target: T1, monkey CD33 protein; experiment: ELISA, coated monkey CD33, antibody 10 nM
monkey CD33 protein [12] = target: T1, monkey CD33 protein; experiment: ELISA, coated monkey CD33, antibody 10 nM; remark: listed apart in the source
[13] = target: T3, monkey CD33 on HEK293T-monkey CD33 cells; experiment: FACS on HEK293T-monkey CD33 cells; remark: listed apart in the source
monkey CD33 protein [14] = target: T1, monkey CD33 protein; experiment: ELISA, coated monkey CD33, antibody 0.001 nM
monkey CD33 protein [15] = target: T1, monkey CD33 protein; experiment: ELISA, coated monkey CD33, antibody 0.01 nM
monkey CD33 protein [16] = target: T1, monkey CD33 protein; experiment: ELISA, coated monkey CD33, antibody 0.1 nM; remark: listed apart in the source
monkey CD33 protein [17] = target: T1, monkey CD33 protein; experiment: ELISA, coated monkey CD33, antibody 100 nM; remark: listed apart in the source
monkey CD33 protein [18] = target: T1, monkey CD33 protein; experiment: ELISA, coated monkey CD33, antibody 0.001 nM; remark: listed apart in the source
monkey CD33 protein [19] = target: T1, monkey CD33 protein; experiment: ELISA, coated monkey CD33, antibody 1 nM; remark: listed apart in the source
monkey CD33 protein [20] = target: T1, monkey CD33 protein; experiment: ELISA, coated monkey CD33, antibody 0.01 nM; remark: listed apart in the source

B1: C33B904 (antibody, human IgG1, kappa, V domains shown)
VH: EVQLVESGGGLVQPGRSLRLSCAASGFTFDDYAMHWVRQAPGKGLEWVSGIGWSGGSIVYADSVKGRFTISRDNAKNSLYLQMNSLRAEDTALYYCAKDSPYGDFFDYWGQGTLVTVSS
VL: DIVMTQSPDSLAVSLGERATINCKSSQTVFYSSNNKNYLAWYQQKPGQPPKLLISWASTRKSGVPDRFSGSGSGTDFTLTVSSLQAEDVAVYYCQHYYSTPYTFGQGTKLEIKR
notes: Control antibody, intact human IgG1; variable regions from US20190382481A1; also called C33B904 hIgG1; C331B904
Kd (monkey CD33 protein [1]): 0.494 nM | koff (monkey CD33 protein [1]): 0.000497 s⁻¹ | kon (monkey CD33 protein [1]): 1.01e+06 M⁻¹ s⁻¹ | OD450 (monkey CD33 protein [2]): 3.4 OD450 | Kd (monkey CD33 protein [3]): 0.492 nM | koff (monkey CD33 protein [3]): 0.000632 s⁻¹ | kon (monkey CD33 protein [3]): 1.29e+06 M⁻¹ s⁻¹ | Kd (human CD33-His [4]): 0.157 nM | koff (human CD33-His [4]): 4.08e-05 s⁻¹ | kon (human CD33-His [4]): 260000 M⁻¹ s⁻¹ | OD450 (monkey CD33 protein [5]): 2.52 OD450 | EC50 [6]: 5.7 nM | Max MFI [6]: 3590 MFI | Kd (human CD33-His [7]): 0.155 nM | koff (human CD33-His [7]): 7.44e-05 s⁻¹ | kon (human CD33-His [7]): 479000 M⁻¹ s⁻¹ | OD450 (monkey CD33 protein [8]): 0.04 OD450 | OD450 (monkey CD33 protein [9]): 0.06 OD450 | OD450 (monkey CD33 protein [10]): 0.99 OD450 | OD450 (monkey CD33 protein [11]): 3.23 OD450 | OD450 (monkey CD33 protein [12]): 3.09 OD450 | EC50 [13]: 4.8 nM | Max MFI [13]: 7880 MFI | OD450 (monkey CD33 protein [14]): 0.07 OD450 | OD450 (monkey CD33 protein [15]): 0.15 OD450 | OD450 (monkey CD33 protein [16]): 1.15 OD450 | OD450 (monkey CD33 protein [17]): 3.06 OD450 | OD450 (monkey CD33 protein [18]): 0.06 OD450 | OD450 (monkey CD33 protein [19]): 2.73 OD450 | OD450 (monkey CD33 protein [20]): 0.29 OD450

Reference: US20240124575A1 (SIMCERE ZAIMING PHARMACEUTICAL, published 2024)
